T1: bovine αS2 casein (no signal peptide)
T1 chain: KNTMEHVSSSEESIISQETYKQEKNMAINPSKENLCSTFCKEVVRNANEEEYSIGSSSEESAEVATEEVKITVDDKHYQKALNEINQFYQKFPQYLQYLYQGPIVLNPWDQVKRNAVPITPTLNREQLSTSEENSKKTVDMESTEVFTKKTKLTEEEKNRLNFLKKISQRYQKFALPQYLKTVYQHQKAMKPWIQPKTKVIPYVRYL

T2: bovine β casein (variant A2) (no signal peptide)
T2 chain: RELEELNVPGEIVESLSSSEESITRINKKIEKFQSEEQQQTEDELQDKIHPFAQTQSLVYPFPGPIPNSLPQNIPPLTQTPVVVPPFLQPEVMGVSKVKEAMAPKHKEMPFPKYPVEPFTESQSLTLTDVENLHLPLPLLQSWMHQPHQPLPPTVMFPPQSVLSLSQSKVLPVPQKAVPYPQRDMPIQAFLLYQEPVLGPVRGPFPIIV

T3: FLAG_SERPINB14_HiBiT
T3 chain: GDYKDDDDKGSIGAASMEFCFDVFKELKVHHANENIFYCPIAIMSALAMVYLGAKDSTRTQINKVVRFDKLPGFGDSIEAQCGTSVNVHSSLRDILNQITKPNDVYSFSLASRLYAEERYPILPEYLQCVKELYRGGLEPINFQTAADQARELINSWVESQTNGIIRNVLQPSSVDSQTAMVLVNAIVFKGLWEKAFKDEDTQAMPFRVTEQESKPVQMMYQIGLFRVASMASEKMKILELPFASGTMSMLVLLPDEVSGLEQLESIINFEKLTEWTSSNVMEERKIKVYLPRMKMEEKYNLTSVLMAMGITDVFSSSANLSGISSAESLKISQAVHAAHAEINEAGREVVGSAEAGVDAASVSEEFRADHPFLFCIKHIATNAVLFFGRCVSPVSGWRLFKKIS

T4: bovine αS1 casein (variant C) (no signal peptide)
T4 chain: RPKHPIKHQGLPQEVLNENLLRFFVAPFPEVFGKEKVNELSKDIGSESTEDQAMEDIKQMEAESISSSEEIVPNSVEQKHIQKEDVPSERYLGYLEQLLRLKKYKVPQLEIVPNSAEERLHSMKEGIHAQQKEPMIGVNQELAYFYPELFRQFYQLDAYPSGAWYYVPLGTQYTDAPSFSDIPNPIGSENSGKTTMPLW

B1: ScMNN2(M1-S36)_Fam20c(D93-R584)_FLAG (protein)
chain: MLLTKRFSKLFKLTFIVLILCGLFVITNKYMDENTSDFSSDPSSNLSSHSLEKLPPAAEPAERALRGRDPGALRPHDPAHRPLLRDPGPRRSESPPGPGGDASLLARLFEHPLYRVAVPPLTEEDVLFNVNSDTRLSPKAAENPDWPHAGAEGAEFLSPGEAAVDSYPNWLKFHIGINRYELYSRHNPAIEALLHDLSSQRITSVAMKSGGTQLKLIMTFQNYGQALFKPMKQTREQETPPDFFYFSDYERHNAEIAAFHLDRILDFRRVPPVAGRMVNMTKEIRDVTRDKKLWRTFFISPANNICFYGECSYYCSTEHALCGKPDQIEGSLAAFLPDLSLAKRKTWRNPWRRSYHKRKKAEWEVDPDYCEEVKQTPPYDSSHRILDVMDMTIFDFLMGNMDRHHYETFEKFGNETFIIHLDNGRGFGKYSHDELSILVPLQQCCRIRKSTYLRLQLLAKEEYKLSLLMAESLRGDQVAPVLYQPHLEALDRRLRVVLKAVRDCVERNGLHSVVDDDLDTEHRAASARDYKDDDDK
B2: Fam20c(M1-R584)_FLAG (protein)
chain: MKMMLVRRFRVLILMVFLVACALHIALDLLPRLERRGARPSGEPGCSCAQPAAEVAAPGWAQVRGRPGEPPAASSAAGDAGWPNKHTLRILQDFSSDPSSNLSSHSLEKLPPAAEPAERALRGRDPGALRPHDPAHRPLLRDPGPRRSESPPGPGGDASLLARLFEHPLYRVAVPPLTEEDVLFNVNSDTRLSPKAAENPDWPHAGAEGAEFLSPGEAAVDSYPNWLKFHIGINRYELYSRHNPAIEALLHDLSSQRITSVAMKSGGTQLKLIMTFQNYGQALFKPMKQTREQETPPDFFYFSDYERHNAEIAAFHLDRILDFRRVPPVAGRMVNMTKEIRDVTRDKKLWRTFFISPANNICFYGECSYYCSTEHALCGKPDQIEGSLAAFLPDLSLAKRKTWRNPWRRSYHKRKKAEWEVDPDYCEEVKQTPPYDSSHRILDVMDMTIFDFLMGNMDRHHYETFEKFGNETFIIHLDNGRGFGKYSHDELSILVPLQQCCRIRKSTYLRLQLLAKEEYKLSLLMAESLRGDQVAPVLYQPHLEALDRRLRVVLKAVRDCVERNGLHSVVDDDLDTEHRAASARDYKDDDDK

Assays:
[1] = molecular target: T1, bovine αS2 casein (no signal peptide)
[2] = molecular target: T2, bovine β casein (variant A2) (no signal …)
[3] = molecular target: FLAG_TRX_SPP1 (G158-N314)_HiBiT
FLAG_SERPINB14_HiBiT = molecular target: T3, FLAG_SERPINB14_HiBiT
[4] = molecular target: T4, bovine αS1 casein (variant C) (no …)

Sequence of FLAG_TRX_SPP1 (G158-N314)_HiBiT (chain, as listed by the source): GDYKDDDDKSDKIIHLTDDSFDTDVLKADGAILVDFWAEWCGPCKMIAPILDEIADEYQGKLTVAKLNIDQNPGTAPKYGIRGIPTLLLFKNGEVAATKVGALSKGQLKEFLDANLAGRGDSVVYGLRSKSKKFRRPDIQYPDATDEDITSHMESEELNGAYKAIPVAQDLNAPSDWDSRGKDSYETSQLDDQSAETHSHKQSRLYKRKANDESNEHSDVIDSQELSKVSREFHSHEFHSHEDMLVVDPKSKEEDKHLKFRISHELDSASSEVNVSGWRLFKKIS

Protein	phosphorylation sites detected by LC-MS/MS after co-expression in Kluyveromyces lactis [1]	phosphorylation sites detected by LC-MS/MS after co-expression in Kluyveromyces lactis [2]	Phosphorylation [3]	phosphorylation sites detected by LC-MS/MS after co-expression in Pichia pastoris (FLAG_SERPINB14_HiBiT)	phosphorylation sites detected by LC-MS/MS after co-expression in Kluyveromyces lactis [4]
B1	S23, S24, S25, S46, S52, S71, S72, S73, S76, T145, S146, S150, S158, and T159	S30, S32, S33, S34, S37, T39, S50, at T56	Yes	T92, S99, S165, T202, S206, S222, S271, and S345	S56, S61, S63, T64, S79, S81, S82, S83, S90, S103, and S130
B2	S24, S25, S46, T145, S146, S150, S158, T159, and T163	S30, S32, S33, S34, T39, S50, and T56			S61, S63, T64, S79, S81, S82, S83, S90, S103, and S130
